# Tests used:
# pI of purified protein = assay type: physicochemical
# Excerpt: The molecular mass and pI of purified protein of SEQ ID NO. 3 and SEQ ID NO.
# [1] = tested on: Blood Cancer Cellline MOLT-3; experiment: MTS-PMS cytotoxicity bioassay, MOLT-3; settings: 80 μg/ml; 5000 cells/well
# Excerpt: 5000 cells/well were used for testing.
# (§5) The drug Doxorubicin was used as system suitability (SST) reference.
# [2] = tested on: Blood cancer cellline Jurkat E6; experiment: MTS-PMS cytotoxicity bioassay, Jurkat E6; settings: 80 μg/ml; 5000 cells/well
# Excerpt: 5000 cells/well were used for testing.
# as §5
# [3] = tested on: Ovarian Cancer cell line PA-1; experiment: MTS-PMS cytotoxicity bioassay, PA-1; settings: 80 μg/ml; 5000 cells/well
# Excerpt: 5000 cells/well were used for testing.
# as §5
# [4] = Stability of expressed protein in TBS buffer; assay type: physicochemical; settings: for % Single max impurity / % Total impurity / % purity: 10 mM TBS buffer pH 7.8, 2-8° C.
# Procedure: Stability of expressed protein i.e., SEQ ID NO. 3 was evaluated for 2 weeks using 10 mM TBS buffer with pH 7.8 at 2-8° C.
# [5] = tested on: human urinary Bladder cancer cell line (T-24); experiment: Cytotoxicity bioassay of conjugate, T-24; assay type: cell-based; settings: 72 hours; Cell titer glow
# Procedure: (§1) Bioassay—Cytotoxicity effect Conjugate of Example 8 against ovarian cancer cell line (PA-1) and human urinary Bladder cancer cell line (T-24) was assayed.
# (§2) 5,000 cells/well were plated and incubated at 37° C. overnight.
# (§3) Conjugates/vehicle control dilutions were made in respective media and added to cells. Volume added: 50 uL to each well. […] Each concentration was analysed in triplicates. Media-only wells was used as a control to calculate percent viability. Cell titer glow reagent (volume: 50 uL) was added to each well, the plate was shaken for 5 mins and the luminescence was recorded. Drug Treatment Time: 72 hours. Percent viability was calculated by dividing the luminescence signal obtained for each treated well by the untreated well (media-only control) and multiplying by 100.
# (§4) Data was next transformed using X=Log(x) and then analysed with nonlinear regression (curve fit), Dose Response inhibition−log (inhibitor) vs response (3 parameters) using PRISM software to determine the IC50 value.
# [6] = tested on: ovarian cancer cell line (PA-1); experiment: Cytotoxicity bioassay of conjugate, PA-1; assay type: cell-based; settings: 72 hours; Cell titer glow
# Procedure: as §1, §2, §3, §4
# [7] = Glycan binding study, N-Glycan array
# [8] = Glycan binding study, O-Glycan array, core 2; settings: O-Glycan array containing 94 glycans
# [9] = tested on: bladder cancer cells (T24); experiment: Colocalization study in cell organelles by confocal microscopy; assay type: cell-based; settings: FITC-labelled, 100 μg/mL, 2 h, 37° C.
molecule,measurement,setting,value
"SEQ ID NO. 3: SEQ ID NO. 2 re-engineered: Serine at 1st position, Glycine at 76th position, Cysteine added at carboxy terminal end (protein) SYKITVRVYQTNPDAFFHPVEKTVWKYANGGTWTITDDQHVLTMGGSGTSGTLRFHADNGESFTATFGVHNYKRWGDIVTNLAADETGMVINQQYYSQKNREEARERQLSNYQVKNAKGRNFQIVYTEAEGNDLHANLIIGC",pI,pI of purified protein,6.49
same,% Cytotoxicity on Cell-lines MOLT-3,[1],43%
same,% Cytotoxicity on Cell-lines Jurkat E6,[2],68%
same,% Cytotoxicity on Cell-lines PA-1,[3],82%
same,% Single max impurity,[4]; 0 Week,1.31%
same,% Total impurity,[4]; 0 Week,1.95%
same,% purity,[4]; 0 Week,98.05%
same,% Single max impurity,[4]; 1 Week,0.98%
same,% Total impurity,[4]; 1 Week,2.66%
same,% purity,[4]; 1 Week,97.34%
same,% Single max impurity,[4]; 2 Week,0.86%
same,% Total impurity,[4]; 2 Week,2.91%
same,% purity,[4]; 2 Week,97.09%
same,stability,"[4]; 2 weeks, 10 mM TBS buffer with pH 7.8 at 2-8° C.",stable
"Conjugate of Example 8: Protein of SEQ ID NO. 3 conjugated to cytotoxic drug MMAE using MC-Val-Cit-PAB-MMAE; DAR value 1.0 (conjugate, MC-Val-Cit-PAB-MMAE conjugate, DAR 1.0, DAR value 1.0) SYKITVRVYQTNPDAFFHPVEKTVWKYANGGTWTITDDQHVLTMGGSGTSGTLRFHADNGESFTATFGVHNYKRWGDIVTNLAADETGMVINQQYYSQKNREEARERQLSNYQVKNAKGRNFQIVYTEAEGNDLHANLIIGC",IC50,[5],325 nM
same,IC50,[6],17.7 nM
"SEQ ID NO. 4: SEQ ID NO. 2 re-engineered: Serine at 1st, Glycine at 76th, Serine added at 142nd and Cysteine at 143rd position (protein) SYKITVRVYQTNPDAFFHPVEKTVWKYANGGTWTITDDQHVLTMGGSGTSGTLRFHADNGESFTATFGVHNYKRWGDIVTNLAADETGMVINQQYYSQKNREEARERQLSNYQVKNAKGRNFQIVYTEAEGNDLHANLIIGSC",pI,pI of purified protein,6.49
"SEQ ID NO. 2: recombinant glycan binding protein, variant of Sclerotium Rolfsii Lectin, disclosed in Indian Patent Application 350/MUM/2009 (protein) TYKITVRVYQTNPDAFFHPVEKTVWKYANGGTWTITDDQHVLTMGGSGTSGTLRFHADNGESFTATFGVHNYKRWCDIVTNLAADETGMVINQQYYSQKNREEARERQLSNYQVKNAKGRNFQIVYTEAEGNDLHANLIIG",% Cytotoxicity on Cell-lines MOLT-3,[1],46%
same,binding to N-glycans,[7],specific binding to N-glycans containing GlcNac at the non-reducing end
same,% Cytotoxicity on Cell-lines Jurkat E6,[2],61%
same,Estimated Kd for core 2,[8],0.212 µg/mL
same,Estimated Kd for T antigen,O-Glycan array containing 94 glycans,0.319 µg/mL
same,binding profile to O-glycans,"O-Glycan array, T-antigen and its extended core structures",strong and broad binding profile to O-glycans
same,% Cytotoxicity on Cell-lines PA-1,[3],81%
same,colocalization in cell organelles,[9],"colocalized in Mitochondria, Endoplasmic reticulum, Golgi bodies and Plasma membrane"

# From patent publication US20240383950A1, “RECOMBINANT GLYCAN BINDING PROTEINS AND ITS USE” (UNICHEM LABORATORIES LIMITED, priority 2021, published 2024)
